Data as given in patent US20170022545, “RNA MICROARRAY FOR DETECTING INTERACTION BETWEEN PROTEIN AND RNA CONTAINING A HIGHER-ORDER STRUCTURE” (KYOTO UNIVERSITY, published 2017).

B1: PoP_00021_hsa-let-7b loop (ssRNA)
RNA: GAACCGGCUACGCUAAACUUAGAACCGGUGUACGAAGUUUCAGCGUGGUUUCAGGGCAGUGAUGUUGCCCCUCGGAAGAUAACUAUGCUGAAGCUUCGUGCAC
B2: PoP_00022_hsa-let-7c loop (ssRNA)
RNA: GAACUGGCAAUCGCACCCACCUAAAGGGUGUACGAAGUUUCAGCGGUUUAGAGUUACACCCUGGGAGUUAACUGCUGAAGCUUCGUGCAC
B3: PoP_00020_hsa-let-7a-3 loop (ssRNA)
RNA: GAGAGAGGAUUCUCACUUACUGUACCGGUGUACGAAGUUUCAGCAUAGUUUGGGGCUCUGCCCUGCUAUGGGAUAACUAUGCUGAAGCUUCGUGCAC
B4: PoP_00027_hsa-let-7g loop (ssRNA)
RNA: GCACAAGGAGUAAGGCGCAUGUACCCGGUGUACGAAGUUUCAGCACAGUUUGAGGGUCUAUGAUACCACCCGGUACAGGAGAUAACUGUGCUGAAGCUUCGUGCAC
B5: PoP_00026_hsa-let-7f-2 loop (ssRNA)
RNA: GCCUUGAUGGCCGUCAGUUCGGUUAAGGUGUACGAAGUUUCAGCAUAGUUUUAGGGUCAUACCCCAUCUUGGAGAUAACUAUGCUGAAGCUUCGUGCAC
B6: PoP_00019_hsa-let-7a-2 loop (ssRNA)
RNA: GACACGGUAGGGAAACCCACCAACUAGGUGUACGAAGUUUCAGCAUAGUUUAGAAUUACAUCAAGGGAGAUAACUGUGCUGAAGCUUCGUGCAC
B7: PoP_00008_dKt (ssRNA)
RNA: GGAUUCCACUCAAGCUUCACGGGAUAGUUUGGGAAUAUAGUGCCUGCCCGAAAGGGCGUCAUGGCGCUAUAUUCCCGGA
B8: PoP_00025_hsa-let-7f-1 loop (ssRNA)
RNA: GUAAUCGAGGCGUAAGGCACAACAUAGGUGUACGAAGUUUCAGCAUAGUUGUGGGGUAGUGAUUUUACCCUGUUCAGGAGAUAACUAUGCUGAAGCUUCGUGCAC
B9: PoP_00016_dU1A (ssRNA)
RNA: GGGGUAUAUCCUCACACUUCCCGGGCGUUUGGGAAUAUAGUGCCAUUACGGUCCGGCGCUAUAUUCCCGGA
B10: PoP_00011_dU1A2 (ssRNA)
RNA: GAGACGAGGCCCUAGAUCAUGCAUCCGUUUGGGAAUAUAGUGCCGAGUCCUUCGGGACAUUACGGCGGCGCUAUAUUCCCGGA
B11: PoP_00028_hsa-let-7i loop (ssRNA)
RNA: GAUAUGACCGCCGGCUUAGAAUAGAAGGUGUACGAAGUUUCAGCGCUGUUGGUCGGGUUGUGACAUUGCCCGCUGUGGAGAUAACUGCGCUGAAGCUUCGUGCAC
B12: PoP_00018_hsa-let-7a-1 loop (ssRNA)
RNA: GGUGACGGGCAAAUCACUAACCACCCGGUGUACGAAGUUUCAGCAUAGUUUUAGGGUCACACCCACCACUGGGAGAUAACUAUGCUGAAGCUUCGUGCAC
B13: PoP_00001_Kt (ssRNA)
RNA: GUAUAAGCGGGAGAUUCGUCCUCAUAGGUGUACGAAGUUUCAGCUGACCCGAAAGGGCGUGAUGCUGAAGCUUCGUGCAC

Each binder was assayed against U1A (Homo sapiens, UniProt P09012 P09012:2-282) (assay: RNA microarray, signal at least 10-fold below U1A2/U1A). Conditions: tags: Cy3-labelled (NHS ester); label: 3' pCp-Cy5; hairpin.
Sequence of U1A (P09012 2-282, one chain of several): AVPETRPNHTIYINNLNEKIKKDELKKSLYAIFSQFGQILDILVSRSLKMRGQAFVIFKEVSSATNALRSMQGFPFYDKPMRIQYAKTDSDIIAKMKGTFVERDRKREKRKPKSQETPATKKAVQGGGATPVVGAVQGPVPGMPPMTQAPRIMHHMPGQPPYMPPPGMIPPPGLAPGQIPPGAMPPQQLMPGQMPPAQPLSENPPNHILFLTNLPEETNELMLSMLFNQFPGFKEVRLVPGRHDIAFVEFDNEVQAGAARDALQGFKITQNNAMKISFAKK
Description: To a 1.5-mL tube, 120 ng of Cy5-RNA probe PoP_00001 Kt, 120 ng of Cy5-RNA probe PoP_00001, 00008, 00010, 00011, 00014, 00016, PoP_00018-28 and ultrapure water were mixed and controlled to have a volume of 18 μL. Hereinafter, the same operation as described in Section 8 above was performed. Binding of the RNA probe to a target spot was confirmed based on Cy5 signal.
Subsequently, to the gasket slide on the hybridization chamber, 70 μL of 40 nM Cy3-U1A was added and a microarray slide having RNA probes bound thereto was mounted and then a hybridization chamber was assembled. Incubation was performed at room temperature for 30 minutes. The hybridization chamber was made into pieces and the microarray slide was taken out, separated from the gasket in the TBSMT buffer, washed with TBSMT buffer at room temperature for 5 minutes, and further rinsed with TBSM buffer. Thereafter, the dried microarray slide was scanned.

Binding result, no binding:
B1, B2, B3, B4, B5, B6, B7, B8, B9, B10, B11, B12

Same assay, conditions: tags: Cy3-labelled (NHS ester); label: 3' pCp-Cy5; hairpin, Kt kink-turn loop

Binding result, no binding:
B13

The binders below were run against L7Ae (UniProt O29494 O29494:1-119) (assay: RNA microarray, no Cy3 signal). Conditions: tags: Cy3-labelled (NHS ester); label: 3' pCp-Cy5; hairpin.
Sequence of L7Ae (O29494 whole entry, one chain of several): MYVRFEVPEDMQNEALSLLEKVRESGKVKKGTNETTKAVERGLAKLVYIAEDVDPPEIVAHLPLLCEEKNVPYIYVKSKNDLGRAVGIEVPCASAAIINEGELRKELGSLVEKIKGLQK
Description: The mixture solution was incubated at 100° C. for 5 minutes and subsequently on ice for 5 minutes. On the lower frame of a hybridization chamber (Agilent), a gasket slide (Agilent) was mounted. In a single well of the gasket slide, the mixture solution (45 μL) was added and the well was covered with a DNA Barcode microarray slide and then a hybridization chamber was assembled. The hybridization chamber was set at a rotor (Agilent) of a hybridization oven of 55° C. Incubation was performed for 20 hours at a rotation rate of 20 per minute. The hybridization chamber was taken out from the oven and made into pieces. The microarray slide was taken out, separated from the gasket in Gene Expression Wash Buffer 1 (Agilent), washed with Gene Expression Wash Buffer 1 at room temperature for 5 minutes and further washed with Gene Expression Wash Buffer 2 (Agilent) at 37° C. for 5 minutes. The dried microarray slide was scanned by a microarray scanner (Agilent) in the mode of 8×15K, c scan, AglilentHD_miRNA, two color, XDR Hi and Lo (0.05). In this manner, binding of an RNA probe to a target spot was confirmed based on Cy5 signal.
Subsequently, to the gasket slide on the hybridization chamber, 70 μL of 5 nM Cy3-L7Ae (controlled in concentration with TBSMT buffer (Tris-HCl 20 mM, NaCl 300 mM, 5 mM MgCl₂, 0.1% Tween-20)) was added and then a microarray slide scanned was mounted. A hybridization chamber was assembled and incubation was performed at room temperature for 30 minutes. The hybridization chamber was made into pieces and the microarray slide was taken out, separated from the gasket in the TBSMT buffer, washed with TBSMT buffer at room temperature for 5 minutes, and further washed with TBSM buffer (Tris-HCl 20 mM, NaCl 300 mM, 5 mM MgCl₂) at room temperature for 5 minutes. The dried microarray slide was scanned again. […] In addition, Cy3 signal, which was 1.5 times as strong as that at PoP_00001_Kt, was detected at a spot of PoP_00024_hsa-let-7e. No Cy3 signal was detected at spots of other 10 probes.

Binding result, no binding:
B1, B2, B3, B4, B5, B6, B8, B11, B12
